Data set [1] concerns the molecule itself. Kind of data set: SEC + other: dynamic light scattering; co-expressed and co-purified complex on a size exclusion column (Superdex 75 26/60 for MqsR:MqsA-F); oligomeric state confirmed by dynamic light scattering. (In general: Size exclusion chromatography separates by hydrodynamic size, large species first.)
Data set [2] deals with T1, MqsR (his-tagged), co-expressed with full-length MqsA (E. coli, UniProt Q46865 1-98).
T1 construct: MqsR (YgiU, b3022) toxin of Escherichia coli, 98 residues; also called YgiU; B3022; not shown: His6, N-terminal, kept
T1 sequence (looked up): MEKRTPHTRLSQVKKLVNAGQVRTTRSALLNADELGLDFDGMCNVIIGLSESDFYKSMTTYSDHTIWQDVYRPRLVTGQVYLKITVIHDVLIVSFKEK
Described as above. The conditions noted are these: both partners purified.

Data set [3] concerns the molecule itself. Kind of data set: crystal structure; MqsA-F, 2.15 Å, molecular replacement; sitting drop at 4°C, 75 mM Bis-Tris pH 5.5, 150 mM MgCl2, 19% PEG3350; two molecules in the asymmetric unit.
Data set [4] deals with T2, MqsR, his6-tag cleaved, co-expressed with MqsA-N (E. coli, UniProt Q46865 1-98).
T2 construct: MqsR (YgiU, b3022) toxin of Escherichia coli, 98 residues; 1-97 seen in the first complex of the crystal; also called YgiU; B3022; not shown: His6, N-terminal, cleaved
T2 sequence (looked up): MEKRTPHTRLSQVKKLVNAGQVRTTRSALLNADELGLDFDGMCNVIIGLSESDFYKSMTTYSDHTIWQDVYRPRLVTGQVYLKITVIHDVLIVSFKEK
Description: SEC + other: dynamic light scattering; co-expressed and co-purified complex on a size exclusion column (Superdex 75 26/60 for MqsR:MqsA-F); oligomeric state confirmed by dynamic light scattering. To be noted: both partners purified.

B1: Full-length MqsA (MqsA-F), untagged, co-expressed with MqsR (natural protein, E. coli, UniProt Q46864 1-131, looked up)
chain: MKCPVCHQGEMVSGIKDIPYTFRGRKTVLKGIHGLYCVHCEESIMNKEESDAFMAQVKAFRASVNAETVAPEFIVKVRKKLSLTQKEASEIFGGGVNAFSRYEKGNAQPHPSTIKLLRVLDKHPELLNEIR
notes: MqsA (YgiT, b3021) antitoxin of Escherichia coli, residues 1-131; Two copies stand in the MqsR:MqsA2:MqsR complex; also called YgiT; B3021; source: co-expressed with his-tagged MqsR, co-purified, SEC
For the molecule B1, the binding result in data set [1] is “binds”. In addition, the “stoichiometry N” value in data set [2] is 1 MqsA-F per MqsR (2:2 complex).

B2: Full-length MqsA (MqsA-F), his6-tag cleaved (natural protein, E. coli, UniProt Q46864 1-131, looked up)
chain: MKCPVCHQGEMVSGIKDIPYTFRGRKTVLKGIHGLYCVHCEESIMNKEESDAFMAQVKAFRASVNAETVAPEFIVKVRKKLSLTQKEASEIFGGGVNAFSRYEKGNAQPHPSTIKLLRVLDKHPELLNEIR
modifications: Gln108 methylated at N5
notes: MqsA (YgiT, b3021) antitoxin of Escherichia coli, residues 1-131; Modified pET28a with a TEV site; also called YgiT; B3021; source: E. coli One Shot BL21 (DE3), purified (his6-tag, TEV cleavage, subtraction his6-tag, SEC); not shown: His6, N-terminal, cleaved
On to B2, for which the binding result in data set [3] is on record as “binds”.

B3: MqsA N-terminal domain (MqsA-N), untagged, co-expressed with MqsR (domain or fragment, E. coli, UniProt Q46864 1-76, looked up)
chain: MKCPVCHQGEMVSGIKDIPYTFRGRKTVLKGIHGLYCVHCEESIMNKEESDAFMAQVKAFRASVNAETVAPEFIVK
notes: MqsA (YgiT, b3021) antitoxin of Escherichia coli, N-terminal domain, residues 1-76; Untagged pCA21a vector; source: E. coli BL21 (DE3), co-expressed with MqsR, purified (his6-tag of MqsR, thrombin cleavage, subtraction his6-tag, SEC)
Turning to B3, in data set [4], the “stoichiometry N” value was 1 MqsA-N per MqsR (1:1 heterodimer).

In general, stoichiometry N refers to a count of units in the complex or per binding partner.

The record behind these values is paper PMC2791442, “Three Dimensional Structure of the MqsR:MqsA Complex: A Novel TA Pair Comprised of a Toxin Homologous to RelE and an Antitoxin with Unique Properties” (PLoS Pathogens, 2009).
